Experimental data: patent publication US20170355766A1

What was measured:
Assay in all cases: SPR (Biacore)
FcγRIIaR (human) = FcγRIIaR (human) (UniProt P12318)
[1] = target: human FcγRIIb receptor protein (R&D Systems) (human) (UniProt P31994)
[2] = target: human V158 FcγRIIIa receptor protein (6xHis and GST tags) (human) (UniProt P08637)
[3] = target: human H131 FcγRIIa receptor protein (6xHis and GST tags) (human) (UniProt P12318)
[4] = target: human FcγRI receptor protein (R&D Systems) (human) (UniProt P12314)
human FcγRI receptor protein (R&D Systems) (human), sequence (P12314 16-288 limits assumed): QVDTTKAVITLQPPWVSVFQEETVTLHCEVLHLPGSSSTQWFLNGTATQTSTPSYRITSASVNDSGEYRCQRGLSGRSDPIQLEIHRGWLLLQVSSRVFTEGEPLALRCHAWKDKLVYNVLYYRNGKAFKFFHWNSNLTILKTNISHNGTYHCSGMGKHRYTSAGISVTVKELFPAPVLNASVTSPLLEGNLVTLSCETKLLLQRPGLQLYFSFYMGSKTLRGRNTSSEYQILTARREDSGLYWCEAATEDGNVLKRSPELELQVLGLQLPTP

FcγRIIIaF (human) = FcγRIIIaF (human) (UniProt P08637)
FcγRIIIaF (human), sequence (P08637 17-208 limits assumed): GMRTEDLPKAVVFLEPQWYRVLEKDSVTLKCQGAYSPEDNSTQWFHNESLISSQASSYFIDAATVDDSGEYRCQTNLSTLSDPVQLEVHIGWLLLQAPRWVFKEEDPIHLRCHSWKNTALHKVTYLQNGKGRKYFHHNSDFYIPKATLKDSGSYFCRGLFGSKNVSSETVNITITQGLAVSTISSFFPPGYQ

human FcγRIIb receptor protein (R&D Systems) (human), sequence (P31994 46-217 limits assumed): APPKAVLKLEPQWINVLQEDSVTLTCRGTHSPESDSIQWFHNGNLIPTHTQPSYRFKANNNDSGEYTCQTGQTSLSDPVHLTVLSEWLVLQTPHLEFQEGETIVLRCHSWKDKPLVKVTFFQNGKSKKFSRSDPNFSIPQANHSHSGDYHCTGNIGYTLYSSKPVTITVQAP
FcγRIIaR (human), sequence (P12318 34-217 H167R limits assumed): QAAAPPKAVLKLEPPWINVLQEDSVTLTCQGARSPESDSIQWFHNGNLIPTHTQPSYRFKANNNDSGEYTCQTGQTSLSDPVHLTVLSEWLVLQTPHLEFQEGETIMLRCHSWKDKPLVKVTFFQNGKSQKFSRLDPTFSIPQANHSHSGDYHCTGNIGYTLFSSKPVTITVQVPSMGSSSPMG
human V158 FcγRIIIa receptor protein (6xHis and GST tags) (human), sequence (P08637 17-208 F176V limits assumed): as the sequence (P08637 17-208 limits assumed) above, with F160V counted along it
human H131 FcγRIIa receptor protein (6xHis and GST tags) (human), sequence (P12318 34-217 limits assumed): as the sequence (P12318 34-217 H167R limits assumed) above, with R134H counted along it

Row | Fold FcγRIIaR (FcγRIIaR (human)) | Fold FcγRIIb [1] | Substance | further results
1 | 0.00859 fold | 0.0147 fold | G236F (antibody) | –
2 | 0.00859 fold | 0.0147 fold | G236K (antibody) | –
3 | 0.00859 fold | 0.0147 fold | G236R (antibody) | –
4 | – | – | G236S (antibody) | Fold FcγRIIIaV [2]: 0.00367 fold
5 | – | 0.00225 fold | G236T (antibody) | –
6 | – | 0.0147 fold | G236V (antibody) | –
7 | 0.00859 fold | 0.0147 fold | G237E (antibody) | –
8 | 0.00859 fold | 0.0147 fold | G237K (antibody) | –
9 | 0.00859 fold | 0.0147 fold | G237P (antibody) | –
10 | 0.00859 fold | 0.0147 fold | L234K (antibody) | –
11 | – | 0.147 fold | L235N (antibody) | –
12 | – | 0.00585 fold | L235P (antibody) | –
13 | 0.00859 fold | 0.0147 fold | L235S (antibody) | –
14 | – | – | S267E/A327D (antibody) | Fold FcγRIIIaV [2]: 0.00199 fold
15 | – | – | S267E/A327E (antibody) | Fold FcγRIIIaV [2]: 0.00894 fold
16 | – | – | S267E/H268E/L328F (antibody) | Fold FcγRIIIaV [2]: 0.092 fold
17 | 269 fold | 221 fold | anti-CD19 IgG1/2 ELLGG antibody with S267E/L328F | Fold FcγRIIaH [3]: 0.993 fold; Fold FcγRI [4]: 2.35 fold
18 | – | – | anti-CD19 WT IgG1 antibody (HuAM4G7 Fv, native human IgG1 Fc) | Fold FcγRIIIaF (FcγRIIIaF (human)): 1 fold
